Experimental data: patent US20170304442A1 (SORRENTO THERAPEUTICS, published 2017)

T1: recombinant mouse WISP1/His (mouse, UniProt O54775 23-367)
T1 construct: also called murine WISP1; mWISP1; not shown: His tag
T1 sequence (looked up): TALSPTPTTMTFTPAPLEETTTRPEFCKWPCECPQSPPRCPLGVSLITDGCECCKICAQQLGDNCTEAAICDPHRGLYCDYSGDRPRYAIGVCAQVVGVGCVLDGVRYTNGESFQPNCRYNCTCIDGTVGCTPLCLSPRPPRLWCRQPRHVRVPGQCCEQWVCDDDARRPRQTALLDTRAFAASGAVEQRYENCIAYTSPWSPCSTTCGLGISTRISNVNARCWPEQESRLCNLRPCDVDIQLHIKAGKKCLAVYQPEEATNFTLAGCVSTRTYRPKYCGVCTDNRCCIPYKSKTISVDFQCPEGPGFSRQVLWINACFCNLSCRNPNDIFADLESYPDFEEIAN

T2: recombinant human WISP1/His (human, UniProt O95388 23-367)
T2 construct: also called hWISP1; recombinant human WISP1 protein; not shown: His tag
T2 sequence (looked up): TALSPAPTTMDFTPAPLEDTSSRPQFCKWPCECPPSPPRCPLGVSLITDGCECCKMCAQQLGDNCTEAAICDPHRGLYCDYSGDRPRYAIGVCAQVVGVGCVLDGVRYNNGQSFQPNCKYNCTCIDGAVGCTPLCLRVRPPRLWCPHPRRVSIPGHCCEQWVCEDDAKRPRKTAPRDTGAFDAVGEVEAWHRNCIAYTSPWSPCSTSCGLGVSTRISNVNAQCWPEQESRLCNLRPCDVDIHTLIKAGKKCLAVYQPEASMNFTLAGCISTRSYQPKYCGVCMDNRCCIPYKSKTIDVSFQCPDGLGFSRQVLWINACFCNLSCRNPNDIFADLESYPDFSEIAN


What was measured:
[1] = biological target: T1, recombinant mouse WISP1/His; assay: ELISA screening
[2] = biological target: T2, recombinant human WISP1/His; assay: ELISA screening
[3] = biological target: T2, recombinant human WISP1/His; assay: SPR, IgG captured on anti-human Fc CM5 chip, human WISP1/His as analyte, 1:1 Langmuir fit
Method: This example illustrates binding affinities of various anti-WISP-1 antibodies disclosed herein. Briefly, Anti-human Fc antibody (GE, BR-1008-39) was immobilized on CM5 sensor chip to approximately 1000 RU using standard NHS/EDC coupling methodology. Antibodies (about 10 μg/ml) were captured for 60 s at a flow rate 10 μl/min. Recombinant human WISP1/His was serially diluted in running buffer (HBS-EP). All measurements were conducted with a flow rate of 30 μL/min. Surfaces were regenerated with 3M MgCl2 for 60 s. A 1:1 (Langmuir) binding model was used to fit the data.

| Binder | binding result [1] | binding result [2] | Kd [3] | koff [3] | kon [3] |
| --- | --- | --- | --- | --- | --- |
| WIr2H2 (antibody, V domains shown, Fully human IgG; also called Wlr2H2) VH: EVQLVQSGADVKKPGASVKVSCQASGYTLTSYDIHWMRQAPGQGLEWMGWINPNSGNTGYAEKFQGRVAMTSHTSTSTVYMELSRLTSEDTAVYYCARGAMGGFDPWGQGTLVTVSS VL: DIQMTQSPSSVSASVGDRVTITCRASQDISRWLAWYQQKPGKAPKLLIYAASTLQSGVPSRFSGSGSGTDFTLTISSLQPEDFATYYCQQANTFPITFGQGTRLEIK | binds | binds |  |  |  |
| WIr2D6 (antibody, V domains shown, Tested as IgG (captured by anti-human Fc); also called Wlr2D6) VH: EVQLVQSGAEVKRSGASVKVSCKLSGDTLTDLSIHWVRQAPGKGLEWMGGFDFEDGEIVYGDKFKGRVTVTEDPSTDTAYMDLKRLTFEDTAIYYCATIKDIPGRYYFDFWGQGTLVTVSS VL: VIWMTQSPSSVSASVGDTVTITCRASQGIRSWLAWYQQKPGKAPKLLIYGASSLHSGVPSRFSGSGSGTYFTLTISSLQPEDFATYYCQQADSFPPWTFGQGTKVEIK | binds |  | 53.9 nM | 0.0489 s⁻¹ | 907000 M⁻¹ s⁻¹ |
| WIr2H3 (antibody, V domains shown, Tested as IgG (captured by anti-human Fc); also called Wlr2H3) VH: EVQLVQSGGGMVQPGGSLRLSCAASGFTFSDYYMDWVRQAPGQGLEWVGRIRHKAQGYTTEYAASVKGRFSISRDDSRSSLSLQMNSLKTEDTAVYYCAMVGGSRDWGQGTLVTVSS VL: QAGLTQPPSVSGAPGQRVTISCTGGSSNIGPGYAVHWYQQHPGRAPKLLIYTNNNRPSGVPDRFSGSRSGTSASLAITGLQAEDDAYYYCQSYDSSLSGSVFGGGTKLTVL | binds |  | 95.9 nM | 0.00897 s⁻¹ | 93500 M⁻¹ s⁻¹ |
| WIr2G7 (antibody, V domains shown, Fully human IgG; also called Wlr2G7) VH: QVQLVQSGAEVKKPGASVKVSCKASGYTFTSYDINWVRQATGQGPEWLGWLNPGSGKTGNAQNFQGRVFMTWDTSKDTAYMEMSSLRSDDTAVYYCARNLDYWGQGTLVTVSS VL: DIVMTQTPLSLPVTLGQPASISCRSSQSLVYSDGNTYLSWLQQRPGQPPRVLINQISNRFSGVPDRFSGSGAGTDFTLKISRVEAEDVGVYYCMQATQFPVTFGGGTKVEIK | binds | binds |  |  |  |
| WIr2F6 (antibody, V domains shown, Tested as IgG (captured by anti-human Fc); also called Wlr2F6) VH: QMQLVQSGAEVKRPGASVKVSCKASGYSFTNFDINWVRQATGQGLEWMGWMDPNSGNSGSAPAFQGRVTMTRDTSIGTAYMELSGLTSEDTAVYYCARDDFYDSSGFDAWGQGTLVTVSS VL: QSVLTQPPSASGTPGQTVTVSCSGRSSNVGSNTVDWYQHLPGTAPKLLIYSSNRRPSGVPDRFSGSKSGTSASLAISGLQSEDEADYYCAAWDDSLNVYVFGTGTKLTVL | binds |  | 10.1 nM | 0.00559 s⁻¹ | 554000 M⁻¹ s⁻¹ |
| WIr2B9 (antibody, V domains shown, Fully human IgG; also called Wlr2B9) VH: QVQLVQSGAEVKKPGSSVKVSCKASGGTFNNYNINWVRQAPGQGFEWMGRIVPMLGVPKYAQKFQGRVTISADMSTSTAYMELRSLRSDDTAMYYCARGEDLDPWGQGTLVTVS VL: SYELMQPASVSGSPGQSITISCTGTSSDVGGYNYVSWYQQHPGKAPKLMIYDVSKRPSGVSNRFSGSKSGNTASLTISGLQAEDEADYYCSSYTSSSPYVFGTGTKVTVL | binds | binds |  |  |  |
| WIr2C11 (antibody, V domains shown, Tested as IgG (captured by anti-human Fc); also called Wlr2C11) VH: QVQLVESGGALVQPGGSLRLSCAASGFTFSDHWLSWVRQAPGKGLEWVSSISSSSRYIHYADSVKGRFTISRDNAKNSLYLQMNSLSAEDTAVYYCAREDTSMATNGFDVWGQGTMVTVSS VL: AIQLTQSPSSLSASVGDRVTITCRASQGIRNHLGWYQQKPGKAPKRLIYAASSLQSGVPSRFSGSGSGTEFTLTISGLQPEDFATYYCLQHNSYPFTFGQGTRLEIK | binds |  | 81.7 nM | 0.0219 s⁻¹ | 267000 M⁻¹ s⁻¹ |
| WIr2D9 (antibody, V domains shown, Fully human IgG; also called Wlr2D9) VH: QVQLVQSGAEVKKPGASVKVSCKVSGYTLTELSMHWVRQAPGKGLEWMGGFDPEDGETIYAQKFQGRVTMTEDTSTDTAYMELSSLRSEDTAVYYCATEGWFGELSPVYWGQGTLVTVSS VL: AIQLTQSPSSLSASVGDRVTITCRASQDIRNDLGWYQQKPGRAPQRLIYTTSTLQSGVPSRFSGSGSGTEFTLTISSLQPEDFATYYCLQHNTYPWTFGQGTRLEIK | binds | binds |  |  |  |
| WIr2D5 (antibody, V domains shown, Fully human IgG; also called Wlr2D5) VH: EVQLVESGAEVKKPGASVKVSCKASGYTFTSYGISWVRQAPGQGLEWMGWISAYNGNTNYAQKLQGRVTMTTDTSTSTAYMELRSLRSDDTAVYYCARVRVFEYSSLMDVWGQGTTVTVSS VL: AIQMTQSPSSLSASVGDRVTITCQASQDISNYLNWYQQKPGKAPKLLIYDASNLETGVPSRFSGSGSGTDFTFTISSLQPEDIATYYCQQHDNLPITFGQGTRLEIK | binds | binds |  |  |  |

Next, values leading:

| binding result [1] | binding result [2] | Kd [3] | koff [3] | kon [3] | Binder |
| --- | --- | --- | --- | --- | --- |
| binds |  | 0.631 nM | 0.00025 s⁻¹ | 396000 M⁻¹ s⁻¹ | WIr2H4 (antibody, V domains shown, Tested as IgG (captured by anti-human Fc); also called Wlr2H4) VH: EVQLVESGGDLVQPGGSLRLSCAASGFTLNSRDMHWVRQSTRTGLEWVAAISIAGDTYYPLSVRGRFTISRDTAKSSLYLQMNSLTDGDTAVYYCVRGRHFDGYKSVFFDSWGQGTLVTVSS VL: not shown |
| binds | binds |  |  |  | WIr2E4 (antibody, V domains shown, Fully human IgG; also called Wlr2E4) VH: QVQLQQSGAEVKKPGASVKVSCKVSGYTLTELSMHWVRQAPGKGLEWMGGFDPEDGETIYAQKFQGRVTMTEDTSTDTAYMELSSLRSEDTAVYYCATDRWWERTTWGAFDIWGQGTMVTVSS VL: QSVLTQPASVSGSPGQSITISCIGTGSAAVSWYQQHPGKAPKLIIYDVNNRPSGVSARFSGSKSDNTASLTISGLQAEDEGDYYCSTYGAGSTWVFGGGTKLTVL |
| binds | binds |  |  |  | WIr2D3 (antibody, V domains shown, Fully human IgG; also called Wlr2D3) VH: QVQLVQSGGGLVQPGRSLRLSCAASGFTFSSYGMHWVRQAPGKGLEWVAVISYDGSNKYYADSVKGRFTISRDNSKNTLYLQMNSLRAEDTAVYYCFDDYVDYWGQGTLVTVSS VL: DIVMTQTPSSLSASVGDRVTITCRASQGISNYLAWYQQKPGKAPKLLIYAASSLQSGVPSRFSGSGSGTDFTLTISSLRPEDFATYYCLQDYSFPLTFGGGTKVEIK |
| binds | binds |  |  |  | WIr2G8 (antibody, V domains shown, Fully human IgG; also called Wlr2G8) VH: QVQLVQSGAEVQKPGASVKVSCKASGYRFINNDIHWVRQATGQGLEWMGWMDPNNGKTGYAQKFQGRVTMTRDTSISTAYMELSSLRSEDTGVYYCVRGIIAAAGGGWGQGTLVTVSS VL: DVVMTQSPSTLSASVGDRATITCRASQSVDTWLAWYQQKPGKAPHVLIYKASNLNSGVPSRFSGSGSGTEFTLTISSLQPDDFATYYCQQYKTWWTFGQGTKVEIK |
| binds | binds |  |  |  | WIr2D10 (antibody, V domains shown, Fully human IgG; also called Wlr2D10) VH: QVQLVESGGGVVQPGRSLRLSCGASGFTFSRFAMHWVRQAPGKGLEWVTVTSFDGSEIYYADSVKGRFTISRDNSKNTLYLQMNSLRVDDTAVYFCARDALGSIDYWGQGTLVTVSS VL: not shown |
